# Experimental data taken from the DeepSol protein solubility set.
# Test: soluble on expression in E. coli; label from the status in PepcDB or PDB records
row,Sequence,soluble on expression in E. coli
1,MGSDKIHHHHHHMTSARRQLIDANATPFYHVINRCVRRAFLCGEDKLTGRSYEHRRGWIVDKIKVLSSIFCIDICAYAVMNNHYHLVLKINVEKAKSLSQREIISRWCQITKGHAVATKYMNGDVLIDGEIMLLDALLAEWHERLSSVSWFMRCLNEEIARKANREDECKGAFWEGRFKSQALLDEQALLACMMYVDLNPIRAGVADSLQSSDFTSIQERISLLNLQRDAFTSLKTQVKSVNKLPQIIHQSLAKFDGPTHQSQQTGIPFHFADYLELIDWTGRAIRLDKKGYIDNQRPKLLHELGIASDAWLTSAKEFRRQYSGISGRWDSMCEFKKQHNSGKWCKGKASSQALHP,not soluble
2,MGSDKIHHHHHHMTSFNSNELQKLYIAFFGRPCDPAGMNYWLSKSEDKANLIDVAKAFSSQEEYKKSLTSVNSIEFQINQIYLNLFARKADFDSLNTWSLKCKRGELKIYELASMLTIEQSNIEEKIDNISLKDVEVLEKKVQAAQLFTDQISKDICWINAYKPDSIDPWILGKALQVGINYLNKVDSSYHLDKYAVTEILHKMSFEKINTSTKAIIKIRNLSLTIPISFKHDQKLSNLLTKGVLNSIIGGQLVKNKTTTKIEALRNINLTIMNGERVALIGHNGSGKTSFLKVISGIYLPTEGDLDVEVDVYPMLQKSFLTSTDLTGVDAAKAHYLLVNKSLNGFDQFLQDIIEFSGLGEFISLPIKTYSEGMSARLIFSILTSIPHDCLAIDEGFGTGDSDFFERAEKRMKSFMNSSGTLILASHSEHLLKQFCTRGIVFNHGQVVYDGSLDASLNYYHTHDYIHSNDN,not soluble
3,MGSDKIHHHHHHMTSHRAEFPIKLRFLFEPARYKILYGGRGGAKSWGVARALLIQAAATPLRILCVREFQNSIVESVHHLLKAQIEAIGLNSFYEVHNNVIRGINGSEFIFAGLHSNVTRIKSFEGVDRVWVEEAQTVSKTSWDTLIPTIRKEGSEIWVTYNPELNTDETHQRFVVNPPAGAVVVKINWNDNPWFPEILRREKDGLKARDPDAYQNVWEGNCRVTLEGAVYAKELRLAQEEGRIRSVPYDEAKPVHTFFDLGWADNTSIWFAQTVGNELRLIDYYSNSQMPIQHYIGVLQNKGYMYGTDWLPHDARARTLATGRSVEEIMLAAGRKVRIVPNLSIHDGINAARTIFPRCYFDEQNCAEGLQSLRHYRFDVDRDSGQFSARPLHDYHSHAADAFRYFAMAIEEDKPAASARGINMKGWRA,not soluble
4,MGSDKIHHHHHHMTSPCPQILWNMTRKCNFSCHYCYFPHDNSPVSDSLPVAALLDFLRSRGGEWLVGLTGGEPFIYPYFVDICSAIAAEHRIGIDTNLSVTPVVKRFARHVPPDRVHDIYAALHIEERERRGAVDAFIRNYHTLAGRGFTVKVNYVVHPSLVQRFAADCEFFGRHGIPLTPRPFKGVYEGRRYPEGYGSTAAAIFTQHPEAGRKTVFNFHGVPCHGGHTFLRMEPDGTVLRCPGDKTVLGNVLSGTVQTESGPTPCRMHRCPCQGVEHILPDAAQQDFIEGVRAYVVGDLPAAQRAFTAAHSRAPAMTQAANNAGVAAFAAGDAQAAACCFARAAADDPVTPLYAANLKLARRAAQPSPPSGTENETPELSLAVNYQRTGN,not soluble
5,MGSDKIHHHHHHMTSYRIGIDVGGTHTDAVLLDETNQVMAETKAPTTEDVSRGIYQAMRDVIESAQVDRTRIDYAMLGTTHCTNAIVERKRLNTVGIIRIGAPATLAVKPLIGVPDDLRTLLGKHVYIVSGGHEFDGREIASLDEDHLYEIAHEIKGAVDSVAITSVFSPVSDNHEVRAAEIIREILGEAIPISLSKEIGSVGLLERENATILNASVVNVAQATAEGFVAALKEEGIEANVFFGQNDGTLMSVEYAKKYPILTIACGPTNSLRGASFLTGKENAIVVDVGGTTTDIGVLAQSFPRESSLAVEIGGARTNFRMPDLVSIGLGGGTIIRVNETDGTFTIGPESVGYRLPEKGLVFGGDTLTTTDVVVALGRANIGDRSKVAHLDKELLRRIYDRMVEMVEMAVDQMKTSSGDAPVILVGGGSILLPDQLRGASEVMKPEHLGVANAIGAAIAQVSGQIERVFSLDERGREQTLAYAKDLAREEAIKAGADPSDLTIVDVEDVPLAYLPGNATRIRVKAAGPLGSASAEQYEKGNVIP,not soluble
6,MGSDKIHHHHHHMTTIHVSDLSKTYGTDTNVPVLSGVSFDLTSPAIHGLIGANGVGKTTLLRILAGQSRCEGVVEVDGQPAFDNPEVMDRCVLMGIDVPLPSTWRGTKLLSFAQHRYPRWDEARCAQLIDAFQVPVDKPYQSLSRGQKSALGIIIAFSATCDITLLDEPYLGLDVANRDLFYRELRAEQARCPRLIILSTHHINEASHVFDSVMVLKKDGVALQGDVESITGRVVELVGPKATIEGFVSHPARRIGEVHTAGGVAKVLAEARAEEWDQLSALGLRTHEVSLERAVMFLECD,not soluble
7,MGSDKIHHHHHHMTTIPSTAEAKLEMLTTINRAIAGSRPEALPPYPVPAPLSRAEILHQFEDRILDYGAAYTHVSAAELPGAIAKALGNARRVIVPAGIPAPWLTVGMDVLRDEPPLSHAELDRADAVLTGCAVAISETGTIILDHRADQGRRALSLIPDFHICVVREDQIVQTVREGVEAVAASVREGRPLTWLSGGSATSDIELVRVEGVHGPRRLQVIVVG,soluble
8,MGSDKIHHHHHHMTTLDRKIDFTVILSVTKANPNGDPLNGNRPRQNYDGYGEISDVAIKRKIRNRLQDMGESIFVQSNDRNLDGYASLRDRAEANDTIKKLMKTKNASDQVAAEACATWMDVRAFGQVFAFKGDKAGGVSVGVRGPVSIHTATSVAPIDVTSMQITKSVNSESGKERGSDTMGMKHRVDHGVYVFNGSINTQLAEKTNFTQEDAEKFKLALVSLFENDASSARPEGSMEVHKVYWWEHDSKLGRFSSAKVHRAVSVQALTDEPKSFLDYEIKVDALEGFTPEILDGL,not soluble
9,MGSDKIHHHHHHMTTSYAKIEITGTLTVLTGLQIGAGDGFSAIGAVDKPVVRDPLSRLPMIPGTSLKGKVRTLLSRQYGADTETFYRKPNEDHAHIRRLFGDTEEYMTGRLVFRDTKLTNKDDLEARGAKTLTEVKFENAINRVTAKANLRQMERVIPGSEFAFSLVYEVSFGTPGEEQKASLPSSDEIIEDFNAIARGLKLLELDYLGGSGTRGYGQVKFSNLKARAAVGALDGSLLEKLNHELAAV,not soluble
10,MGSDKIHHHHHHMTTTSPDISRFGPIGLVVIQSTSLCNLDCSYCYLPDRKSRKIFDLELLPLLMQRIFESPFFGEELSLVWHAGEPLTLPCSYYDRATQLINEAVEQWTNGTVHVEQHVQTNATLINDAWCECFRRNKIIVGISVDGPKDIHDANRCFGNGEGSHVHSMRGIEALKRNKIPFHAIAVVTATAMDHPNEMYQFFRDNEIHSVGFNVEEQEGEHTSSSMQGYEREEQYRQFLESFWQLSEQDGFPVVLREFDQVISLIRENRRLNQNELNRPYSILSVDWQGNFSTFDPELLSVSSKLYGTFDLGSIRNISLMEAAKTERFQTLWKDMLSGVKRCEKECNYFGFCGGGMGSNKFWEHGSLNCSETNACRFNNKIPVDVLLDRFKSSPPIDNETPF,not soluble
11,MGSDKIHHHHHHMTVDSPILTDTLVVGGGQAGIAMSEHLTGQGVPHIVLERDRIAQRWRTGRWDSLVANGPAWHDRFPGLEFEGLDPDGFASKDAVADYLEAYARKFNAPIRTGVEVVRAERNGGRYGFTVETSAGTYEAQRIVVATGPFQRPVIPAIAPRDPALTQIHSADYRNPGQLPEGAVLVIGAGSSGVQIADELQRAGREVYLSVGPHDRPPRRYRGRDFCWWLGVLGLWDQETVQPGREHVTIAVSGTDGGRTIEFRALAHQGITLVGVTKSFRDGVVAFENDLAENVARGDANHFALLDAADAYIARNGLSLPDEPQARRVPPDPACMTEPILQLDLAAANVTSIIWATGYAAEYGWLNVDAFDANGKPRHQRGVSSEPGVYFLGLPWLSRRGSAFLWGVWHDAKHIAGHIAMQRNYLSYPDFGQSQQ,not soluble
12,MGSDKIHHHHHHMTVEPLHILHLISTSGLFGAERVLLELASQSRSLGMHVTVAALKNSRNPNTELAEAARGAGLPTLVVPCGGRFDAGVVGILTEEIRKSGTQIIHSHNYKSNYYARQAAELSGARWIVTNHGRRAGFKLFLYALLDAMLVRKADRVVAVSPKIADRLAVLGIGRDGLSVIDNGVDFSRFESLPTKADAGNVLGVAGSSYVIGTVGALTEEKGHRHLLQAVKSVRKSIPNVVCVVVGDGPERRRLEQLAREEGIEQTAIFTGKRDDVPSILPRFDLFVLPSLSEGLPMALLEAQAAKVPAIATNVGAIATVINNGVTGVVVSPGDVPALAEAIIRSHDEADKARCMALKGYERVKVHYSADTMAQRYIEIYRGMIGAGGAIG,not soluble
13,MGSDKIHHHHHHMTVLQLPIIDISGLTCQRNNSSDVVAQQIKQACQDYGFFYIVGHGVDEQLQTQLEHLSQEFFAQDQETKLKISMALGGRAWRGYFPVGNELTSGRPDLKEGIYFGSELKDNHPLVKAGTPMHGRNLFPSNIPQFRETVLEYIDSMTKLGHILMAGIALSLDLDKSYFAERYTKDPLILFRIFNYPPNLGSQSEWGVGEHTDYGVLTILKQDNIGGLQVKSKSGWIDAPPIPGSFVCNIGDMLDRMTRGLYRSTPHRVRNLSTSNRLSFPFFFDPNFNVEVKPIDLKDVVVKDDQSDRWDKASVHEFRGTYGDYLLKKVSKVFPELRQKVL,not soluble
14,MGSDKIHHHHHHMTVWRFKKSQKGLVGVDITSATVKLIELESSGAGHRIASYAVRPLHEGAVVERRIRDLDEVANTLTRAVEHARPHSRRAVAAVPASAAITKTLTYPASLTDDEIEARIQLESERHIPFPLNEVAFDFQRLGLNARYPDQQDILLVACRLQDVDRLADVLRRAGLEPAAVDVETFAMERAAGELLLGQAASQPDDECVALVDIGANMNAFHVLIDGRIAYTRDNVLGGRHLTEEIRKRYGLSLEEAGLAKKRGGLPEDYELEVLTPYIDMLIQQVGRSLQLYYTSGKPRDIQRLVLAGGSSVIPGLRERLAAQSGLEVVMANPFSRMRVASRVDVQALASDAPAMLTACGLAMRGRR,not soluble
15,MGSDKIHHHHHHMTWLPLNPIPLKDRVSMIFLQYGQIDVIDGAFVLIDKTGIRTHIPVGSVACIMLEPGTRVSHAAVRLAAQVGTLLVWVGEAGVRVYASGQPGGARSDKLLYQAKLALDEDLRLKVVRKMFELRFGEPAPARRSVEQLRGIEGSRVRATYALLAKQYGVTWNGRRYDPKDWEKGDTINQCISAATSCLYGVTEAAILAAGYAPAIGFVHTGKPLSFVYDIADIIKFDTVVPKAFEIARRNPGEPDREVRLACRDIFRSSKTLAKLIPLIEDVLAAGEIQPPAPPEDAQPVAIPLPVSLGDAGHRSS,not soluble
16,MGSDKIHHHHHHMTWVGVVDAGRHVEATMKLELGFDPRDLLRKLGPGNSIAKFAKNQTIFAQGDEADSVYLLLQGRIKVVVLSAQGKEAATGMVAPGQFFGDGCLVGEATRTTTTIAMQDCLVAAIPSTRLIETLRAQPDFAELFVRHLLLRNRRIEEDLLDQLLNCSEKRLARLLLRLADFEEGGEPQPIAPHISQETLAEMIGTTRSRVSYFMNKFRKLGLISYDRTIEVHPGRLSAVLHDRAEARG,not soluble
17,MGSDKIHHHHHHMTYDFLIIGGGIAGTSAGAALSRLGTTCLLEAESALAYHASGRSAALFEPNYGHPVTVDLSHASATALRTLGGGVLSPRGLLILAGPGEDAALARDIKTMDLAEISIADAQDMIPILNADHITRAAHHAAAWDIDTDRMVQHYARQIRTNGAVETGATVLGLTKTPQGWTVETRDHSFHARIIVNAAGAWADDIARMAGIAPIGLTPKRRSMARMPAPRGHDVSAWPMIIGAGESWYAKPDAGAWLVSPAEEDPAAPHDAYADDMVLAEGIARYQPFVTEEVTRVTSSWAGLRTFAPDRCLVIGPDRTDPSVLWFAGQGGYGFQTAPAASQLLADLVSGAPSTLDPATVKALSPSRF,not soluble
